The results in this text go back to the supplement of paper PMC10567573.

B1: FEM1A (parent)
chain: PCCSSSPEEPLNGESYESCCPTSR
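Note: lentivirally expressed fusions sorted by FACS into six bins by GFP to DsRed ratio, PSI derived from sequencing read proportions per bin multiplied by bin number.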

This data set covers variants of B1. Briefly: protein stability index of a GFP-peptide fusion (GPS, HEK-293T) (PSI 1-6); higher = more stable. Particulars: c terminus: a fixed tail appended.
Take PCCSSSPEEPLNGESYESCCPTYR [S23Y]: the protein stability index was 3.09.

PCCSSSPEEPLNGESYESCCPTSY [R24Y]: the protein stability index is 4.25.

Consider PCCSSSPEEPLNGESYESCCPTSP [R24P], for which the protein stability index was 4.81. The same measure for PCCSSSPEEPLNGESYESCCPTSG [R24G]: 5.14; for PCCSSSPEEPLNGESYESCCPTSH [R24H]: 4.75; for PCCSSSPEEPLNGESYESCCPTSA [R24A]: 4.81. The result for PCCSSSPEEPLNGESYESCCPTSK [R24K] reads 4.75; that for PCCSSSPEEPLNGESYESCCPTSC [R24C], 4.33; that for PCCSSSPEEPLNGESYESCCPTSD [R24D], 5.19.

Take PCCSSSPEEPLNGESYESCCPTSF [R24F]: the protein stability index turned out to be 4.78. Consider PCCSSSPEEPLNGESYESCCPTSE [R24E], for which the protein stability index stood at 5.04. The same measure for PCCSSSPEEPLNGESYESCCPTSI [R24I]: 4.39; for PCCSSSPEEPLNGESYESCCPTSV [R24V]: 4.34; for PCCSSSPEEPLNGESYESCCPTSW [R24W]: 3.05. As for PCCSSSPEEPLNGESYESCCPTSS [R24S], the protein stability index is 5.27. In the case of PCCSSSPEEPLNGESYESCCPTSQ [R24Q], the protein stability index turned out to be 5.08. For PCCSSSPEEPLNGESYESCCPTSL [R24L], the protein stability index amounted to 4.81. The same measure for PCCSSSPEEPLNGESYESCCPTSN [R24N]: 4.96; for PCCSSSPEEPLNGESYESCCPTST [R24T]: 4.97; for PCCSSSPEEPLNGESYESCCPTSM [R24M]: 4.6.
